Assay: label from the status in PepcDB records

In the case of “MRKDWGDGPGGLGTAMQDKILLIEDSVALSMLLRTRLSDETEAEVVHCASMAEADALMQANNFTLALTGLNLPDAPKGEILTLLSERKVPAIVFTATVDEEARKRYAEKKIIDYIVKDGHRTVDAVVKTVDRIMTNKRFSVLVVDDARTARSGLVEILERQNFKVSEAHSGNRALEILSQDPSIQLVITDYHMPDMDGYELTRRIRDSRSSEDLRVIGISSSTDRLLSASFLKAGASDFVYRPFVPEELQCRIDNNIETLKQLKRLRELAERDHLTGLPNRRSFFERTRALMDVINDNDESGAVAILDIDHFKKINDTLGHDAGDRALKKLAELLQGMCDEQRHIPARLGGEEFAVFLRGLDARAAYAFCEELREQVEKNGRQLSGSSLALTISLGVVEIEKGEPFDNQLNAADQLLYLAKANGRNRVYSDIMIQEGLQKIGLNG”, the protein production is reported as “failed”.

With “MEKVTLIATATMGLEALVAREVKDLGYEDVKVENGKVTFTSDVAAIPRANLWLRTADRVKLKVGEFKALTFDELFEKTKSLPWADIIPVHAEFPVIGRSVKSKLFSVSDCQAIVKKAVVESMKKRYKRGWFDENGPLYRIEVALHKDIATLTIDTSGTGLHKRGYRYLHSQAPLKETLAAAIIMLSHWKSDRPFADPFCGSGTIPIEAAMIGQNIAPGFNREFVSEQWHWIGSEHWDRAREEVEDMANYDQPLDILGSDIDHRMVELAQNNAMEAGFGDLISFKQMQVTDFRHKEEYGILIGNPPYGERIGEREEVEKMYQKMGEVFREHLETWSIYILTSHEGFEELYGKRATKKRKLYNGNIKTDYYQFFGPRPPRHPEGSQQ” the protein production was “failed”.

For “MRTIIALETHDVRFPTSRELDGSDAMNPDPDYSAAYVVLRTDGAEDLAGYGLVFTIGRGNDVQTAAVAALAEHVVGLSVDKVIADLGAFARRLTNDSQLRWLGPEKGVMHMAIGAVINAAWDLAARAANKPLWRFIAELTPEQLVDTIDFRYLSDALTRDEALAILRDAQPQRAARTATLIEQGYPAYTTSPGWLGYSDEKLVRLAKEAVADGFRTIKLKVGANVQDDIRRCRLARAAIGPDIAMAVDANQRWDVGPAIDWMRQLAEFDIAWIEEPTSPDDVLGHAAIRQGITPVPVSTGEHTQNRVVFKQLLQAGAVDLIQIDAARVGGVNENLAILLLAAKFGVRVFPHAGGVGLCELVQHLAMADFVAITGKMEDRAIEFVDHLHQHFLDPVRIQHGRYLAPEVPGFSAEMHPASIAEFSYPDGRFWVEDLAA”, the protein production was “not failed”.

In the case of “MMTTAEQIPFQLILNSGNARSFAMEALQFAKQGKMAEADEAMVKAKEAINEAHHFQTELIQSEARGEKTEISVLLIHAQDHLMNAITVKELAAEFIDLYKKLEAKGE”, the protein production is reported as “not failed”.

With “MRLKKQLLGSLLVVIVVLSIAVATTKQQKGFVTGQPTGALNLSDILDSEELGEYHLMSAAIITGNTVDFSGLGAGPDDPFEIASITKIFTGELLRLQIERGEITESTAVGDVLGERVADSLIRDITVEELANHTSGLPRLGNVGLRPFMATFFDKNPYKDLSADRVISISTTSKLNSRGEFHYSNLGFALLGQVLARNAGLTFDQLLDRDLLAPLNLNNTKLMTPESLAQDAPQGFSTPGKQVEAWEMDGFLPAAGLRSTARDMAVFCQYLFTKGPAPFTWQSLESAPEIVWHNGESFGYSSVLFFNTATTTAIFVAADVATSVFPIGHELLMANSTRQESK” the protein production was “failed”.

With “MEAKLQVGVLGFGTVGSGVIHILEEHQEKISQVTGYHISVKKVLVRDLEKNRRYETKGFELTTNPSDVLDDPEIAVVVEVMGSITTAREYILQALKAGKHVVTANKDLIALHGDELVAVAQANNCDLFYEASVAGGIPILRTIVNSLAADKIQKVMGIVNGTTNFMLTKMTTEKKSYEEVLAEAQALGFAESDPTNDVDGIDAARKMVIMTRLAFGMNVNLDNVETSGIRGISPEDIEVAYQLGYKIKLVGTAEETNGTVNVNVGPVLLPKAHPLAGVNYENNAVFVTGAAVGETMFYGPGAGELPTATSVVSDLITVAKNSRLGTNGNAFNSYKHETKHTPKEQVFSKYYLRLTMDDKTGTFLKLTQIFAEAGVGFDKILQQPYDDFTATVVIVTHSTSQAQLEQAITRVKNEPEMQMLAKYSVVEG” the protein production was “not failed”.

For “MELSAVGERVFAAEALLKRRIRKGRMEYLVKWKGWSQKYSTWEPEENILDARLLAAFEEREREMELYGPKKRGPKPKTFLLKAQAKAKAKTYEFRSDSARGIRIPYPGRSPQDLASTSRAREGLRNMGLSPPASSTSTSSTCRAEAPRDRDRDRDRDRERDRERERERERERERERERERGTSRVDDKPSSPGDSSKKRGPKPRKELPDPSQRPLGEPSAGLGEYLKGRKLDDTPSGAGKFPAGHSVIQLARRQDSDLVQCGVTSPSSAEATGKLAVDTFPARVIKHRAAFLEAKGQGALDPNGTRVRHGSGPPSSGGGLYRDMGAQGGRPSLIARIPVARILGDPEEESWSPSLTNLEKVVVTDVTSNFLTVTIKESNTDQGFFKEKR”, the protein production was “failed”.

With “MGHHHHHHSHMAKTYDYLFKLLLIGDSGVGKTCVLFRFSEDAFNSTFISTIGIDFKIRTIELDGKRIKLQIWDTAGQERFRTITTAYYRGAMGIMLVYDITNEKSFDNIRNWIRNIEEHASADVEKMILGNKCDVNDKRQVSKERGEKLALDYGIKFMETSAKANINVENAFFTLARDIKAKMDKKLEGNSPQGSNQGVKITPDQQKRSSFFRCVLL” the protein production was “not failed”.

In the case of “MPIVARSSRVPWVIKYRPKRVEDVVNQDQAKKILVPWFKAWLEGRKPDKRAALLYGPPGVGKTSLVEAIASEFNLEMIELNASDYRRRSDIERIVGAASRKRSMFKRGVVILLDEVDGINPREDAGGIEALLSVIKTTENPIVMTANDPWKDFLRPLREVSLMVEFRPLTLTHIVAVLQRICEAERIECEREALRYIAERSEGDLRSAINDLQAVAEGYGRVTLTLAREIVRGREKSIDIWRTLNQVFYKPRQAWMARKAVSQSEKDYEELIAWINDNIPRKYGEPSDLFRAFDALARATVFLGRAKFGGNWELLSYVFDLMGPGVAYARMEGEVLKTRYSYPEKIRMMAQLRGVRETREKLAEVLAKRLLMSRRAVKTEVLPILHYIFRSSRDPTKPAMIALEYGLTEKMVELLAGQRKSEILKAMATVKKARLGEKPLEPQEAKARRRGEKASRDEGRKAGKRERKGVGLDFFLGEQ”, the protein production is reported as “failed”.

In the case of “MRKIQFPFCILDVIQRKGVRVLYIIIPIVVLLLIFLFAGYVKAPPNKAAIITGLSKNPRVLLGKSGFKVPFFERVDWLEVGQININVVTEDYIPTKDFINIKVDAIAQVAMEVSNNQVSAVAMRNFLNRKADDVRSMITESLQGNLREIIGTMDLKSICQDKAKFSQEVKQNAEQDMKELGIRILSFNVQNVNDKDGLIDDLGIDNRETIRKTARVAKANADRDVEVASAEAANKASEAKVAAELAIAQRNNDLEIRKAELKIGEDTKKAEADAAYEIQKQTSRKTVEIREQEADIARREKEIELQTKEAEVAEKKLDAEIRKKAEADKYAEMQNADAELYRRQKDAEAQQYEAEKEAAAIRAKGLAEAEAIRQKGLAEAEALDKKAEAMKKYGQAAILEMIVGVLPDIAKSVAEPLSAIDKVTVIGGNSDGVSDLAGNVPIIMGKVMESVKEATGIDMNEIIRAETFEGKTTKNINFTGLDQVGEEIAQGAAQSVSETLQETE”, the protein production is reported as “failed”.

With “MGQPSDLTESTLRFSSLDPLHPPVISQLTAIAKRIRRNSLHLPTIWQEAVDSIGSTLGVSRCLLLTKDFQSRHLQIEAEFCQPTVTAFAALIVPEESEIWRQLFEQHQPITLYNVQFQGEDLGGLWIFPTLYQDQANGYLCLQQVGPAPGPWHPETEALLQELAEQTGTAIAHATLYQELTQATKAAEEASRLKSEFLASTTHELRTPLNGIIGFLRLILDDMADSEAEKHEFVEEAYQSALLLLNLINDILDLAKIEAGRVGIELEVVDFSEVLQATENFALPQAQNKGLSFNLTAPNQGPLLVYGNQRWLLQVMLNIVGNAIKFTHEGGITVAVEVMPRTVLWEGVQKPGLLKVSVGDTGIGVSLEQQSKLFKKFVQIDGSHSKAYGGTGLGLVISQKLVETMGGKVAFFSMGEGLGSTVTFTVLLEELP” the protein production was “failed”.

With “MECGVFHTPYMRPGRKDKDTFEYSLLLAAACDKFGYRDFMVGEHGMQAWENIPNPELLIVAAAQITERMRFAPMAHIVPLHNPSTLAIQIGYTSQLLEDRYFLGVGAGSWENEAVLRGQPGDLSEAHPRLMEGLEVMDKVWRQEPFDFEGKYYKAARLDGQIDPGSVASHGEFKVKDGEEYHLTADHSPHGGADGLEIAVTGLSKNSPSHRLAGERGWTPISFYGGSALLRSQWDTYSEAVRSIGGTPQGSRFKIARDVFVAKTDEEAKEKAKNGALGLAWQKYLMPVYQKYRILQGFIDDADHKVDIDDVDLDYLADNVWLCGSPDTVIEKIEKTFDLAGFRYGQLAVNTHDAMDDPEPWIESLRLFATEVVPNVPVEGTHETVAVG” the protein production was “failed”.

With “MTSLEEITKAIMADSQNKVFTEKNIEPLFAAPKTARINIVGQAPGIKAQESRLYWNDKSGDRLREWMGVDYDTFYHSGYFAVIPMDFYYPGKGKSGDLPPRKGFAQKWHQPILDLLPDIQLTILIGNYAQKYYLHQKSSVKLTDTVAHYKKYLPDYFPLVHPSPRNQIWMSRHPWFEAQVVPDLKKIIQQIIQSS” the protein production was “not failed”.

For “MDTGDKEAGEQIVCKPSFFRVSDNHHHPSRAGCPLHQGQARTGSGSPRGQVAGAEKGGDEGGRRGSGGGSSEPRDRRRREQPRAAGDEDGSAGRAHGAQGHGHGGVCGARSQRPALLKPGSRRARGAGGGRMERKGLAARASGNPSPPALGEGPRPGPPPCVPSGGGAPERGQAGAAAEPAELIRRAHEFKSQGAQCYKDKKFREAIGKYHRALLELKGLLPPPGERERDARPASPAGIPKASRLSEEQSKTVEAIEIDCYNSLAACLLQAELVNYERVKEYCLKVLKKEGENFKALYRAGVAFYHLGDYDKALYYLKEARTRQPSDTNVIRYIQLTEMKLSRCSQREKEAM”, the protein production was “failed”.

For “MKHDKKNSKIIPFPNVKERLVHKGMGALKEKNYHEALRLFSEAKRYNDEESDIYLGMAICLLEIGELEEAKGICEKMLKEGHGHYFTVLQVYMTILIQLRQYEKVKETIEAVLEENKLPPESAEQFYKLLDFSRKMTEDPGPEDITEDLPETEEVDQERLLNDTEEQVKLLHGLKDRNLTSYIGLLKTILQNPSAHPVVKTMILQLLAESDHEKPTLVAKFGDSMTINPTETVKPDDMPILKHVLSVLDDTLGNENPTLYQAVEELWRRHIYVLYPFQPKYSNRELWAAALHKVGYEMHGIDIDKEELHILYEFNDRQLDEACALIKDIEEISYL”, the protein production was “failed”.

With “MEVIVVDDEELSLNRLGNMLAGMPGVEVCGLFYTAAEALRYINENKPDAVFLDICIPETDGLALANKIKDIDGSAKVVFVTGYDEYAVRAFELEAVDYLMKPISRDRLEKTVQRLQRTLLGTDRQSNPQMKVSCFGGFRATVCESDSGSVNWRSPKTEELFAFLIFKRNVSRDEIANTLWDGLEPGRALTNINSTMYYIRKALSPHGLEKCIAATRKEIRIDSELISCDLYEFERLLRGRPSSKDRVETLDRLAELYKGELFQGKAYEWSFAKSRSLESGFISALLETAEYYREKRGYEQAEKMYKRAFEIDPFNEDICGHIIQICLKMGRKSEALRLYLQMEKFLMEELGEKPQAKLKKLFEEQ” the protein production was “failed”.

For “MKRFAFRVILHILLIVLFSIGSYLLFQKQLWFSTTICLILLITIGIHLYRMQFKQIALLRRLTDGLRYNDMMQTFHPPFNNKIMNEWAEELSDTLKDFRGRLLAEEIKHQYYENLLNKVDTAVLVADKAGHIEWMNQAAVTHLGQISQLPETLLKASVAHDTPVIRIEQNSTVLEMAISRTTFATQGREQQLISLKNIHSVLERNEMEAWQKLIRVLTHEIMNSITPIISLSETLSERGIPSQLGEKEYSVMLQAMQTIHRRSKGLLEFVENYRRLTRIPAPIRTQISIAELFTDLKKLFPEEEFQFEVPSPELKLNVDRTQIEQILINLLKNAREACSRKSDKKIQVKARKLSAGNTTLTISDNGEGILPDVLDKIFVPFFTTKTSGSGIGLSLCKQIMTLHEGSINVKSEVGKGSSFILTFPK”, the protein production was “failed”.

For “MSLVAARPLVLVVDDNAVNREALILYLKSRGIDAVGADGAEEARLYLHYQKRIGLMITDLRMQPESGLDLIRTIRASERAALSIIVVSGDTDVEEAVDVMHLGVVDFLLKPVDLGKLLELVNKELKIGEGHHHHHH”, the protein production was “not failed”.
